Reference: publication PMC3735830 (Nature structural & molecular biology, 2013)
One block for each binder: values may come before it.

Key:
[1] = molecular target: T1, Orc1 (S. cerevisiae, UniProt P54784 1-914); experiment: cryo-EM structure
T1 sequence: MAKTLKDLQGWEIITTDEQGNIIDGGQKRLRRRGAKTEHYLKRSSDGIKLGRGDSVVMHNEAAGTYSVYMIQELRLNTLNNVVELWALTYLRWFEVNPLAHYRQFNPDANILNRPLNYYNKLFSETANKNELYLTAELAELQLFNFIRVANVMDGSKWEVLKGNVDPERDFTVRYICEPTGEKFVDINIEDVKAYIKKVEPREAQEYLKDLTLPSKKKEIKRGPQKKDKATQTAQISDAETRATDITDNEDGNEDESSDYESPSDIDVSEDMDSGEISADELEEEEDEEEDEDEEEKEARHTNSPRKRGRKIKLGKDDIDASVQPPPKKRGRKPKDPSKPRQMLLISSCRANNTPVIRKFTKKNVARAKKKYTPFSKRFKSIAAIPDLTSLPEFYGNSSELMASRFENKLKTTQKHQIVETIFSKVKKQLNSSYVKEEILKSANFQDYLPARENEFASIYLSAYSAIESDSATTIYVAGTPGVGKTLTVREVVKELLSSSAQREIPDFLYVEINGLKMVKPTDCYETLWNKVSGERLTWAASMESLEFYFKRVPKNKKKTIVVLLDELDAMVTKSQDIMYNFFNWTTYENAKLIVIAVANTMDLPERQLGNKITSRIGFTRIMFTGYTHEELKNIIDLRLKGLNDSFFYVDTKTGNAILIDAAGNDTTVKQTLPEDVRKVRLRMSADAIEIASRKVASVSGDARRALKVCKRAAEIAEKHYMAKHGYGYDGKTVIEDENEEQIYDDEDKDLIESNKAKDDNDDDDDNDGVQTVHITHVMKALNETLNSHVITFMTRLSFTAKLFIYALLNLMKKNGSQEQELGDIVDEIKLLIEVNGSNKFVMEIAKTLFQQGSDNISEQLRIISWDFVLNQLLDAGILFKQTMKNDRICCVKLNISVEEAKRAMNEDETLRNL

[2] = molecular target: T2, Orc3 (S. cerevisiae, UniProt P54790 1-616); experiment: cryo-EM structure
T2 sequence: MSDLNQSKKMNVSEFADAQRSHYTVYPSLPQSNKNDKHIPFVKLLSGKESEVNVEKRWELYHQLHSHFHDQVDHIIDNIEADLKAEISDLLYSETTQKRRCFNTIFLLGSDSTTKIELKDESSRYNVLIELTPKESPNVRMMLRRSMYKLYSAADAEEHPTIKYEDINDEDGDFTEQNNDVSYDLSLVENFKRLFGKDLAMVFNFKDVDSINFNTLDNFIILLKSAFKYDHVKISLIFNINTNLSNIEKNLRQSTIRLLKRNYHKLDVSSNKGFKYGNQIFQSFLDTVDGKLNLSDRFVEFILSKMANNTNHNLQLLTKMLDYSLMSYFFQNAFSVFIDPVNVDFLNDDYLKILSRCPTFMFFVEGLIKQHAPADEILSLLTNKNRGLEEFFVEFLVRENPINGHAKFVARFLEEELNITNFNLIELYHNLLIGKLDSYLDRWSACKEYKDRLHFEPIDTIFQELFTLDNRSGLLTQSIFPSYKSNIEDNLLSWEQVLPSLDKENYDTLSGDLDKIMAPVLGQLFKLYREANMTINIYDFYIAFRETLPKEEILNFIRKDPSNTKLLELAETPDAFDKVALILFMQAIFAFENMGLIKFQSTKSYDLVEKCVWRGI

[3] = molecular target: Mcm6 (S. cerevisiae, UniProt P53091 1-1017); experiment: cryo-EM structure
Mcm6, sequence (P53091 whole entry): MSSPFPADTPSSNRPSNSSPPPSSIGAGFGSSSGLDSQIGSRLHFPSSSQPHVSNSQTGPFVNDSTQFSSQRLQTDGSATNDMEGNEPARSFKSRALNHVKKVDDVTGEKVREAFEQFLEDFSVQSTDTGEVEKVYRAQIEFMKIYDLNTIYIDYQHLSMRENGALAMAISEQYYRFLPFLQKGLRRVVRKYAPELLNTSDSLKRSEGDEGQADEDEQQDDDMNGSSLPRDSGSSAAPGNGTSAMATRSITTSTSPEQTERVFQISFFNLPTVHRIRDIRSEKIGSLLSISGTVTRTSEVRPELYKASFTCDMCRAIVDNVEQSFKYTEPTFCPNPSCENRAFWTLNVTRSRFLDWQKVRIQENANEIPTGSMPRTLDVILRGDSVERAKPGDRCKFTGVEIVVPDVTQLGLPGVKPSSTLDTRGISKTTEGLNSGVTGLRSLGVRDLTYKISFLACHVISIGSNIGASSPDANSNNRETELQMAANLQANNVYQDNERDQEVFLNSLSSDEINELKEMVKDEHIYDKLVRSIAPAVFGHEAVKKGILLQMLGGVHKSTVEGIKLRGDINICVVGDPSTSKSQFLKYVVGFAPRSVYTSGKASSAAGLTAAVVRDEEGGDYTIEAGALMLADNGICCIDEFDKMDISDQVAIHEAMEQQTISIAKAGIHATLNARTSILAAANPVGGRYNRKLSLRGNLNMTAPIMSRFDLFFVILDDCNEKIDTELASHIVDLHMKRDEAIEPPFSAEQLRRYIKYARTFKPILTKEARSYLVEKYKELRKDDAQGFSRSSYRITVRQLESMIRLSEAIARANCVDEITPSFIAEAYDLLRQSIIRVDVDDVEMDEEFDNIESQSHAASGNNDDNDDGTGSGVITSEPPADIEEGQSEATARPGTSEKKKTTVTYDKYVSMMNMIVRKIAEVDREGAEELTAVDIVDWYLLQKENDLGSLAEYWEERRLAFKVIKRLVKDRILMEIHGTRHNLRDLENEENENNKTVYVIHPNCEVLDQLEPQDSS

[4] = molecular target: T3, Mcm2 (S. cerevisiae, UniProt P29469 1-868); experiment: co-IP
T3 sequence: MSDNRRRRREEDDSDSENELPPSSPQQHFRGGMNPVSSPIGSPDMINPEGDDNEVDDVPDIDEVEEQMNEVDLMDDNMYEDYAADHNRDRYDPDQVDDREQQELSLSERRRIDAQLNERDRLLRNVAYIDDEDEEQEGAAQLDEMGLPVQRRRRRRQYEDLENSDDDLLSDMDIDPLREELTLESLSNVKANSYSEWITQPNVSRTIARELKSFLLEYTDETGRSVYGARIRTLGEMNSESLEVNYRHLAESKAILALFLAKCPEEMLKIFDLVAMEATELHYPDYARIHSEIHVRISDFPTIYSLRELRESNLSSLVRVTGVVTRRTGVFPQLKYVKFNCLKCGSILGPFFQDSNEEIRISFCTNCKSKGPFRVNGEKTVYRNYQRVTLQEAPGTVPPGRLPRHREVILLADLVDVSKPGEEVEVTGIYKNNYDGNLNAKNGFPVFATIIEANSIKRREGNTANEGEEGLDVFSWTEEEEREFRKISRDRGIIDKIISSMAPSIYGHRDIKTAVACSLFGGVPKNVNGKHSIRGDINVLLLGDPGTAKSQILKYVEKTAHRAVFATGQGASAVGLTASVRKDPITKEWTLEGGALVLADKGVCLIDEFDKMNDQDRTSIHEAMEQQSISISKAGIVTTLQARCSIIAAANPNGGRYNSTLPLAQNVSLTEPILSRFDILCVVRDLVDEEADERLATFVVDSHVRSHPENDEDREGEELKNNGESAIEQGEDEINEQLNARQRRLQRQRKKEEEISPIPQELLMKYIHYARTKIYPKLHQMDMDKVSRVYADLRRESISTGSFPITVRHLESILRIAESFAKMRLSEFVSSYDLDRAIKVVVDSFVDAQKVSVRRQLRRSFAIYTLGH

[5] = molecular target: Mcm3 (S. cerevisiae, UniProt P24279 1-971); experiment: cryo-EM structure
Mcm3, sequence (P24279 whole entry): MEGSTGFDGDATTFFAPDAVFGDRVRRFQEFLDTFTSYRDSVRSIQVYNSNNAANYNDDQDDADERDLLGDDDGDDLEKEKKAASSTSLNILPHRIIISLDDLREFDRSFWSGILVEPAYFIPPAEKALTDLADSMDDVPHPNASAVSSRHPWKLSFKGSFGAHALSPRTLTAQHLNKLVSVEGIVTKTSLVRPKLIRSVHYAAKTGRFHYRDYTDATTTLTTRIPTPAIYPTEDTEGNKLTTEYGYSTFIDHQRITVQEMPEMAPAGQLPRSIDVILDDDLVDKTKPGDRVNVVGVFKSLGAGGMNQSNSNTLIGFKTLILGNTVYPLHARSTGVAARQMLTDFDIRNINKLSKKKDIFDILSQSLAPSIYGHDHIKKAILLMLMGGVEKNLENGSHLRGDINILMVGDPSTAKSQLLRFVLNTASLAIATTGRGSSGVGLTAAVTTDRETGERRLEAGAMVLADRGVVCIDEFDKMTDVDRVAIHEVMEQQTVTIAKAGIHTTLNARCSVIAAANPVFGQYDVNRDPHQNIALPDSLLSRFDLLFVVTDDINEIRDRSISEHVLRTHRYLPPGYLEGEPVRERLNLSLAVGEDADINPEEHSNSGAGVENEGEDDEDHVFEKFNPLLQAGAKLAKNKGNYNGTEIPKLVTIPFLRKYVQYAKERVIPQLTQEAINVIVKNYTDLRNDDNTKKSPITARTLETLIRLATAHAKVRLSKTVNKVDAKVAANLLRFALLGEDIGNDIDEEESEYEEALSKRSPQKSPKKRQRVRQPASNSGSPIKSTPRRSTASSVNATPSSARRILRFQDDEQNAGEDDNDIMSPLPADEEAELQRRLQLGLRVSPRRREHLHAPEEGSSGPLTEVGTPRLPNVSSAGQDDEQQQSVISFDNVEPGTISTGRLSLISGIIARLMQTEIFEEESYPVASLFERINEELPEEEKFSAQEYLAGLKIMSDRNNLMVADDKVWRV

[6] = molecular target: T4, Mcm4 (S. cerevisiae, UniProt P30665 1-933); experiment: cryo-EM structure
T4 sequence: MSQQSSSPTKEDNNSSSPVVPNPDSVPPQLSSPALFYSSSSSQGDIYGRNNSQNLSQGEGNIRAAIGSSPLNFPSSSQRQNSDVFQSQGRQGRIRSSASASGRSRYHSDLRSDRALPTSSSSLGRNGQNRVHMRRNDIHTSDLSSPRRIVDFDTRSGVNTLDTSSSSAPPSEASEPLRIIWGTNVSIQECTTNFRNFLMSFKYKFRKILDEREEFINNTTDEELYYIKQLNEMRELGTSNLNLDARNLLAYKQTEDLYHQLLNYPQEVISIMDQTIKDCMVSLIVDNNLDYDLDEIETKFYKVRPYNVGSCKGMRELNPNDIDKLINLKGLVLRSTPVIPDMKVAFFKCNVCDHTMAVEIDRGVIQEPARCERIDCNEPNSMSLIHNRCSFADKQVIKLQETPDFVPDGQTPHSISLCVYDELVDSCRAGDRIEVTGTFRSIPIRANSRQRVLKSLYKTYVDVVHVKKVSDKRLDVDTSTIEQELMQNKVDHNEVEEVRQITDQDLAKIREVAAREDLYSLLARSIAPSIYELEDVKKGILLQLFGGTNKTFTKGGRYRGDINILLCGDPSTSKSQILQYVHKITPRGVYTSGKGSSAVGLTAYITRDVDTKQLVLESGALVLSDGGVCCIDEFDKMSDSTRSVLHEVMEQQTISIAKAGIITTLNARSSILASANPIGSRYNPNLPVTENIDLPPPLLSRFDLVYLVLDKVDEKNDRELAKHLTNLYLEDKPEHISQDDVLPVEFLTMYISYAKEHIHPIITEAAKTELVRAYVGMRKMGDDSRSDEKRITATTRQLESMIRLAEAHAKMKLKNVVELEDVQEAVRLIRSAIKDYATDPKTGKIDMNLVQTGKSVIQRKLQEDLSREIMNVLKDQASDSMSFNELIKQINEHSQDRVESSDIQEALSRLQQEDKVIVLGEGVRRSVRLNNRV

binding result [1]: binds
B1: Orc4 (natural protein)
chain: MTISEARLSPQVNLLPIKRHSNEEVEETAAILKKRTIDNEKCKDSDPGFGSLQRRLLQQLYGTLPTDEKIIFTYLQDCQQEIDRIIKQSIIQKESHSVILVGPRQSYKTYLLDYELSLLQQSYKEQFITIRLNGFIHSEQTAINGIATQLEQQLQKIHGSEEKIDDTSLETISSGSLTEVFEKILLLLDSTTKTRNEDSGEVDRESITKITVVFIFDEIDTFAGPVRQTLLYNLFDMVEHSRVPVCIFGCTTKLNILEYLEKRVKSRFSQRVIYMPQIQNLDDMVDAVRNLLTVRSEISPWVSQWNETLEKELSDPRSNLNRHIRMNFETFRSLPTLKNSIIPLVATSKNFGSLCTAIKSCSFLDIYNKNQLSNNLTGRLQSLSDLELAILISAARVALRAKDGSFNFNLAYAEYEKMIKAINSRIPTVAPTTNVGTGQSTFSIDNTIKLWLKKDVKNVWENLVQLDFFTEKSAVGLRDNATAAFYASNYQFQGTMIPFDLRSYQMQIILQELRRIIPKSNMYYSWTQL

binding result [1]: binds
binding result [2]: binds
B2: Cdc6 (natural protein)
chain: MSAIPITPTKRIRRNLFDDAPATPPRPLKRKKLQFTDVTPESSPEKLQFGSQSIFLRTKALLQKSSELVNLNSSDGALPARTAEYEQVMNFLAKAISEHRSDSLYITGPPGTGKTAQLDMIIRQKFQSLPLSLSTPRSKDVLRHTNPNLQNLSWFELPDGRLESVAVTSINCISLGEPSSIFQKIFDSFQDLNGPTLQIKNMQHLQKFLEPYHKKTTFVVVLDEMDRLLHANTSETQSVRTILELFLLAKLPTVSFVLIGMANSLDMKDRFLSRLNLDRGLLPQTIVFQPYTAEQMYEIVIQKMSSLPTIIFQPMAIKFAAKKCAGNTGDLRKLFDVLRGSIEIYELEKRFLLSPTRGSLNSAQVPLTPTTSPVKKSYPEPQGKIGLNYIAKVFSKFVNNNSTRTRIAKLNIQQKLILCTIIQSLKLNSDATIDESFDHYIKAITKTDTLAPLQRNEFLEICTILETCGLVSIKKTKCKGKTKRFVDKIDVDLDMREFYDEMTKISILKPFLH

binding result [3]: binds
B3: Cdt1 (natural protein)
chain: MSGTANSRRKEVLRVPVIDLNRVSDEEQLLPVVRAILLQHDTFLLKNYANKAVLDALLAGLTTKDLPDTSQGFDANFTGTLPLEDDVWLEQYIFDTDPQLRFDRKCRNESLCSIYSRLFKLGLFFAQLCVKSVVSSAELQDCISTSHYATKLTRYFNDNGSTHDGADAGATVLPTGDDFQYLFERDYVTFLPTGVLTIFPCAKAIRYKPSTMATTDNSWVSIDEPDCLLFHTGTLLARWSQGMHTTSPLQIDPRANIVSLTIWPPLTTPISSKGEGTIANHLLEQQIKAFPKVAQQYYPRELSILRLQDAMKFVKELFTVCETVLSLNALSRSTGVPPELHVLLPQISSMMKRKIVQDDILKLLTIWSDAYVVELNSRGELTMNLPKRDNLTTLTNKSRTLAFVERAESWYQQVIASKDEIMTDVPAFKINKRRSSSNSKTVLSSKVQTKSSNANALNNSRYLANSKENFMYKEKMPDSQANLMDRLRERERRSAALLSQRQKRYQQFLAMKMTQVFDILFSLTRGQPYTETYLSSLIVDSLQDSNNPIGTKEASEILAGLQGILPMDISVHQVDGGLKVYRWNSLDKNRFSKLLQIHKSKQQD

binding result [4]: binds
binding result [5]: binds
binding result [6]: binds
B4: Mcm7 (natural protein)
chain: MSAALPSIQLPVDYNNLFNEITDFLVTFKQDTLSSDATRNENEDENLDAENIEQHLLEKGPKYMAMLQKVANRELNSVIIDLDDILQYQNEKFLQGTQADDLVSAIQQNANHFTELFCRAIDNNMPLPTKEIDYKDDVLDVILNQRRLRNERMLSDRTNEIRSENLMDTTMDPPSSMNDALREVVEDETELFPPNLTRRYFLYFKPLSQNCARRYRKKAISSKPLSVRQIKGDFLGQLITVRGIITRVSDVKPAVEVIAYTCDQCGYEVFQEVNSRTFTPLSECTSEECSQNQTKGQLFMSTRASKFSAFQECKIQELSQQVPVGHIPRSLNIHVNGTLVRSLSPGDIVDVTGIFLPAPYTGFKALKAGLLTETYLEAQFVRQHKKKFASFSLTSDVEERVMELITSGDVYNRLAKSIAPEIYGNLDVKKALLLLLVGGVDKRVGDGMKIRGDINVCLMGDPGVAKSQLLKAICKISPRGVYTTGKGSSGVGLTAAVMKDPVTDEMILEGGALVLADNGICCIDEFDKMDESDRTAIHEVMEQQTISISKAGINTTLNARTSILAAANPLYGRYNPRLSPLDNINLPAALLSRFDILFLMLDIPSRDDDEKLAEHVTYVHMHNKQPDLDFTPVEPSKMREYIAYAKTKRPVMSEAVNDYVVQAYIRLRQDSKREMDSKFSFGQATPRTLLGIIRLSQALAKLRLADMVDIDDVEEALRLVRVSKESLYQETNKSKEDESPTTKIFTIIKKMLQETGKNTLSYENIVKTVRLRGFTMLQLSNCIQEYSYLNVWHLINEGNTLKFVDDGTMDTDQEDSLVSTPKLAPQTTASANVSAQDSDIDLQDA
